In patent US6972178B1, “Drug screening using a proline-rich nuclear receptor co-regulatory protein/nuclear receptor co-expression system” (City of Hope, priority 1999, dated 2005):

Tests used:
SF1 [1] = biological target: T1, SF1 (Bos taurus, UniProt Q04752); assay: Nuclear receptor transactivation, CAT reporter in SK-BR-3 cells; format: cell-based, bovine; set-up: The coding region for the wild type bovine SF1 was first subcloned into a yeast expression vector, pGBT9; expressed in transfected cells; host or cells: yeast (Y187, or Y187 x CG1945 diploids)
T1 sequence (Q04752 whole entry): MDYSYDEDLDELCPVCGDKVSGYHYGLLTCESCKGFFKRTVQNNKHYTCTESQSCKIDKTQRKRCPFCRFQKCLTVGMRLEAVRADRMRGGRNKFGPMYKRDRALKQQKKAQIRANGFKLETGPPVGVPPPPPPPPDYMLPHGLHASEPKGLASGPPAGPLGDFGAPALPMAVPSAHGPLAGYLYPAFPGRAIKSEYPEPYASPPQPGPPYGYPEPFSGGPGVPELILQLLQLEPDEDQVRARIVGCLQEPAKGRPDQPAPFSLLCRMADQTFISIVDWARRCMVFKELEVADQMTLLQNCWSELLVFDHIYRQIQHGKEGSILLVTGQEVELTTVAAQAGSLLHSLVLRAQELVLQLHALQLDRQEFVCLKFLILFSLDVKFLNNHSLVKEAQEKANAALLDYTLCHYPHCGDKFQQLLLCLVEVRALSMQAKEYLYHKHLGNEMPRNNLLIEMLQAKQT
Text: (§1) To examine the possible biological significance of this interaction, the entire PNRC coding region was inserted into a mammalian expression vector, pSG5, and this expression plasmid was used to transiently transfect SK-BR-3 cells along with a reporter plasmid, pUMS 1.3CAT-(SF1site)3, which contains three copies of extended steroid hormone half binding site from the human aromatase gene (5′-CCAAGGTCAGAA-3′ (SEQ ID NO:3)), promoter 1.3 of the human aromatase gene, and the CAT reporter gene, along with a second expression plasmid for either SF1 (pSG5-SF1) or ERRα1 (pSG5-ERRα1) (Yang et al., 1998).
(§2) Plasmid for overexpression of PNRC in mammalian cells was made by inserting PCR-amplified fragment with BclI at both ends into the BamHI site in pSG5 vector (Stratagene). To construct mammalian expression plasmids for bovine SF1 and human ERRα1, named pSG5-bSF1 and pSGS-hERRα1, the coding regions for SF1 and ERRα1 were amplified by PCR with an EcoRI site at both ends, and inserted into an EcoRI site of the pSG5 vector. The CAT reporter plasmid, pUMS1.3CAT-(SF1site)3, was prepared by inserting 3 copies of SF1 binding site from human aromatase gene, 5′-CCAAGGTCAGAA-3′ (SEQ ID NO:3), into pUMS-64/+5CAT (Zhou and Chen, 1999) through a HindIII site. […]

SF1 [2] = biological target: T1, SF1; assay: Mammalian two-hybrid assay in SK-BR-3 cells (CAT reporter); format: cell-based, bovine; set-up: expressed in transfected cells; host or cells: SK-BR-3; settings: pM-SF1 + pVP16-PNRC + pG5CAT
Description: The Mammalian MatchMaker two-hybrid assay system (Clontech) was used to confirm the interaction between PNRC and SF1 that was identified in the yeast assays. Because the assays are performed in mammalian cells, proteins are more likely to be in their native conformations, and the results are therefore more likely to represent biologically significant interactions. SK-BR-3 breast cancer cells were cotransfected with three expression plasmids, including pM-SF1 for Gal4 DNA-DB/SF1 fusion protein, pVP16-PNRC for VP16AD-PNRC fusion protein, and a third vector, pG5CAT, to provide the Gal4 DNA-binding site, a promoter, and the CAT reporter gene.
A set of plasmids, named pM-SF1, pVP16-PNRC, pVP16-PNRC270-327, and pVP16-PNRC278-300, for mammalian two-hybrid assays were prepared as follows: SF1 cDNA fragment was excised from pGBT9-SF1 and inserted in frame into Gal4 DNA-binding domain vector pM (Clontech) through an EcoRI site. PCR was used to generate PNRC full length coding region as well as the above mentioned deleted fragments with BclI at both ends. The PCR products were digested with BclI and inserted in proper reading frame into a pVP16 activation domain vector (Clontech) at a BamHI site. Mammalian two-hybrid assays in SK-BR-3 cells were performed according to the procedures described in the Clontech protocol (PT3002-1).

ERRα1 = biological target: T2, ERRα1 (Homo sapiens, UniProt P11474); assay: Nuclear receptor transactivation, CAT reporter in SK-BR-3 cells; format: cell-based
T2 construct: inserting the PCR-amplified ERRA-1 coding region into pGBT9 through an EcoRI site; expressed in transfected cells; host or cells: yeast Y187 x CG1945 diploids
T2 sequence (P11474 1-423): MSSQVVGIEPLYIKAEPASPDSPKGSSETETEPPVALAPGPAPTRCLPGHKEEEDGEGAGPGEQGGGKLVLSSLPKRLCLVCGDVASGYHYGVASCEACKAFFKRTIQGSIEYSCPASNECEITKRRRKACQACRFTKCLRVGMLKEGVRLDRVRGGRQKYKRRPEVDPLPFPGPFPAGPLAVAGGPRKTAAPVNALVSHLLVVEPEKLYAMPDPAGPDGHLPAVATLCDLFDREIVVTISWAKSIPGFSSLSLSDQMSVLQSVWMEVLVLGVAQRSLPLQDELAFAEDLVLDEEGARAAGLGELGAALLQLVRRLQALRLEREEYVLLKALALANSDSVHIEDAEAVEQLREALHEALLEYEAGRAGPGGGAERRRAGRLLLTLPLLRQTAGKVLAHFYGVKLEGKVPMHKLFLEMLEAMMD
Text: as §1, §2

For “PNRC: proline-rich nuclear receptor co-regulatory protein, 327 aa, SEQ ID NO:8, nuclear receptor coactivator”, the “effect on SF1-stimulated transcription by promoter 1.3 of the human aromatase gene” value (SF1 [1]) was “enhanced both SF1-stimulated and ERRα1-stimulated transcription”, the “CAT activity relative to cells transfected with only CAT reporter plasmid” value (SF1 [2]) was 5-6 fold and the “effect on ERRα1-stimulated transcription by promoter 1.3 of the human aromatase gene” value (ERRα1) was “enhanced both SF1-stimulated and ERRα1-stimulated transcription”.
